Values of other authors, collected in paper PMC5757840.

Molecular target: SNARE complex (Rattus norvegicus) (UniProt P32851)
UniProt P32851, sequence (P32851 whole entry, chain 1 of 3): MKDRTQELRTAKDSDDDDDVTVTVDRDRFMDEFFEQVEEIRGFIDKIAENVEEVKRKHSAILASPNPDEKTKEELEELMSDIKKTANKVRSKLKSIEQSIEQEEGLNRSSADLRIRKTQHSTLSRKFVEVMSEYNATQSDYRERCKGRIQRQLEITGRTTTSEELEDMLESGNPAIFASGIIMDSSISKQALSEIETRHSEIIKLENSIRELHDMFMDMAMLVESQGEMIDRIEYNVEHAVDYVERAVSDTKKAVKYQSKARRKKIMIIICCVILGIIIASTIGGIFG
UniProt P32851, sequence (B2RAU4 whole entry, chain 2 of 3, further chain): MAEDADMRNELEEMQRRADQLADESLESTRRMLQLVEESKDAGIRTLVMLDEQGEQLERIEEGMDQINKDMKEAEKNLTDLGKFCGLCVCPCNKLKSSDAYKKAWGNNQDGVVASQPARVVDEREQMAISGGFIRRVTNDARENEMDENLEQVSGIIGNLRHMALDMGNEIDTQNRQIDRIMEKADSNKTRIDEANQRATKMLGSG
UniProt P32851, sequence (P63044 2-116, chain 3 of 3, further chain): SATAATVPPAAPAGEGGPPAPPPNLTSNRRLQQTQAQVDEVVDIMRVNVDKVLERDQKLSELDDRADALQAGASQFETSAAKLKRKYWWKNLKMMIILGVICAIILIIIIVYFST

Question: Which Kd does the source give for Syt1 (from UniProt P21707) here?
Answer: 900 nM
